{"source": "paper PMC2667941", "key": {"[1]": {"target": "T1, human alpha-thrombin (Homo sapiens, UniProt P00734;P00734 328-363;364-622)", "assay": "gel filtration chromatography"}, "[2]": {"target": "T1, human alpha-thrombin", "assay": "gel filtration chromatography", "remark": "listed apart in the source"}}, "note": "Like-named read-outs stand apart in the source and are kept apart here.", "data": [{"binder": "TCCGCTGCAGAAAAATCGGGCGTAC (ssDNA, 9 phosphorothioate linkages, between the last 10 nt (T*C*G*G*G*C*G*T*A*C); rest phosphodiester)", "note": "[ps-po-X on CdTe (same sequence as ps-po)]", "values": [{"measurement": "binding result", "setting": "[1]", "value": "no binding"}]}, {"binder": "GGTTGGTGTGGTTGGAAAAATCGGGCGTAC (structured_DNA, 9 phosphorothioate linkages, between the last 10 nt (T*C*G*G*G*C*G*T*A*C); rest phosphodiester)", "note": "[ps-po-TBA on CdTe]", "values": [{"measurement": "binding result", "setting": "[2]", "value": "binds"}]}]}
